Here are results for five variants from IntAct's records for PubMed 29039417.

B1: BBSome complex member BBS1 (Homo sapiens), Q8NFJ9 (parent)
chain: MAAASSSDSDACGAESNEANSKWLDAHYDPMANIHTFSACLALADLHGDGEYKLVVGDLGPGGQQPRLKVLKGPLVMTESPLPALPAAAATFLMEQHEPRTPALALASGPCVYVYKNLRPYFKFSLPQLPPNPLEQDLWNQAKEDRIDPLTLKEMLESIRETAEEPLSIQSLRFLQLELSEMEAFVNQHKSNSIKRQTVITTMTTLKKNLADEDAVSCLVLGTENKELLVLDPEAFTILAKMSLPSVPVFLEVSGQFDVEFRLAAACRNGNIYILRRDSKHPKYCIELSAQPVGLIRVHKVLVVGSTQDSLHGFTHKGKKLWTVQMPAAILTMNLLEQHSRGLQAVMAGLANGEVRIYRDKALLNVIHTPDAVTSLCFGRYGREDNTLIMTTRGGGLIIKILKRTAVFVEGGSEVGPPPAQAMKLNVPRKTRLYVDQTLREREAGTAMHRAFQTDLYLLRLRAARAYLQALESSLSPLSTTAREPLKLHAVVQGLGPTFKLTLHLQNTSTTRPVLGLLVCFLYNEALYSLPRAFFKVPLLVPGLNYPLETFVESLSNKGISDIIKVLVLREGQSAPLLSAHVNMPGSEGLAAA
partner: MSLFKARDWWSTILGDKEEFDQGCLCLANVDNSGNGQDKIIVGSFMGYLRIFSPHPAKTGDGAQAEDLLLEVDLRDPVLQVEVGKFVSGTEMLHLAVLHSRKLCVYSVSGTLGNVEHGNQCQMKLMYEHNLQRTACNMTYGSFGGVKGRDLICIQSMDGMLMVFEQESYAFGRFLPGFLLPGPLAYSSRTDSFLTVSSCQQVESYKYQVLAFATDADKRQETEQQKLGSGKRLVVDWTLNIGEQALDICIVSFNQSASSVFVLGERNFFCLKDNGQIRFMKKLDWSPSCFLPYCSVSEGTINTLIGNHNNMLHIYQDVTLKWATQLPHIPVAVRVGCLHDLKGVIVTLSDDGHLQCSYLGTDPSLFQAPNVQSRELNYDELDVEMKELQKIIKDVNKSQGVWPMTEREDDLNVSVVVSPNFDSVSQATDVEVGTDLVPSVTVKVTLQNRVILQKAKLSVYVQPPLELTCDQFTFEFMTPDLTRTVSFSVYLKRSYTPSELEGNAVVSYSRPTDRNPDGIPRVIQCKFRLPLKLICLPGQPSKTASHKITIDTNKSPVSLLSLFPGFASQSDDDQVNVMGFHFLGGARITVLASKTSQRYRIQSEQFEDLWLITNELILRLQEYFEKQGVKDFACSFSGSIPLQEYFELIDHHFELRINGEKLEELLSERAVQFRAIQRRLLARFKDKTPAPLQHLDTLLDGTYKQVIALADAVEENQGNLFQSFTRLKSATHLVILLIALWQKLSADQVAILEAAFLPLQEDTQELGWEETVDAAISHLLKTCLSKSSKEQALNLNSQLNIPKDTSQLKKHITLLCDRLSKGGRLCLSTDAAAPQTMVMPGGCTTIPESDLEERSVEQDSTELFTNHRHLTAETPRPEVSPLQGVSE

Variants of B1 are the subject of this assay. Conditions: with pthb1_human BBS9, Q3SYG4.
With MAAASSSDSDACGAESNEANSKWLDAHYDPMANIHTFSACLALADLHGDGEYKLVVGDLGPGGQQPRLKVLKGPLVMTESPLPALPAAAATFLMEQHEPRTPALALASGPCVYVYKNLRPYFKFSLPQLPPNPLEQDLWNQAKEDRIDPLTLKEMLESIRETAEEPLSIQSLRFLQLELSEMEAFVNQHKSNSIKRQTVITTMTTLKKNLADEDAVSCLVLGTENKELLVLDPEAFTILAKMSLPSVPVFLEVSGQFDVEFRLAAACRNGNIYILRRDSKHPKYCIELSAQPVGLIRVHKVLVVGSTQDSLHGFTHKGKKLWTVQMPAAILTMNLLEQHSRGLQAVMAGLANGEVRIYRDKALLNVIHTPDAVTSLCFGRYGREDNTLIMTTRGGGLIIKILKRTAVFVEGGSEVGPPPAQAMKLNVPRKTRLYVDQTLREREAGTAMHRAFQKDLYLLRLRAARAYLQALESSLSPLSTTAREPLKLHAVVQGLGPTFKLTLHLQNTSTTRPVLGLLVCFLYNEALYSLPRAFFKVPLLVPGLNYPLETFVESLSNKGISDIIKVLVLREGQSAPLLSAHVNMPGSEGLAAA [T454K], the “effect of a mutation on the interaction” value is given as “with no effect”.

MAAASSSDSDACGAESNEANSKWLDAHYDPMANIHTFSACLALADLHGDGEYKLVVGDLGPGGQQPRLKVLKGPLVMTESPLPALPAAAATFLMEQHEPRTPALALASGPCVYVYKNLRPYFKFSLPQLPPNPLEQDLWNQAKEDRIDPLTLKEMLESIRETAEEPLSIQSLRFLQLELSEMEAFVNQHKSNSIKRQTVITTMTTLKKNLADEDAVSCLVLGTENKELLVLDPEAFTILAKMSLPSVPVFLEVSGQFDVEFRLAAACRNGNIYILRRDSKHPKYCIELSAQPVGLIRVHKVLVVGSTQDSLHGFTHKGKKLWTVQMPAAILTMNLLEQHSRGLQAVMAGLANGEVRIYRDKALLNVIHTPDAVTSLCFGRYGREDNTLIMTTRGGGLIIKILKRTAVFVEGGSEVGPPPAQAMKLNVPRKTRLYVDQTLREREAGTAMHRAKQTDLYLLRLRAARAYLQALESSLSPLSTTAREPLKLHAVVQGLGPTFKLTLHLQNTSTTRPVLGLLVCFLYNEALYSLPRAFFKVPLLVPGLNYPLETFVESLSNKGISDIIKVLVLREGQSAPLLSAHVNMPGSEGLAAA [F452K]: the “effect of a mutation on the interaction” value is on record as “with no effect”.

MAAASSSDSDACGAESNEANSKWLDAHYDPMANIHTFSACLALADLHGDGEYKLVVGDLGPGGQQPRLKVLKGPLVMTESPLPALPAAAATFLMEQHEPRTPALALASGPCVYVYKNLRPYFKFSLPQLPPNPLEQDLWNQAKEDRIDPLTLKEMLESIRETAEEPLSIQSLRFLQLELSEMEAFVNQHKSNSIKRQTVITTMTTLKKNLADEDAVSCLVLGTENKELLVLDPEAFTILAKMSLPSVPVFLEVSGQFDVEFRLAAACRNGNIYILRRDSKHPKYCIELSAQPVGLIRVHKVLVVGSTQDSLHGFTHKGKKLWTVQMPAAILTMNLLEQHSRGLQAVMAGLANGEVRIYRDKALLNVIHTPDAVTSLCFGRYGREDNTLIMTTRGGGLIIKILKRTAVFVEGGSEVGPPPAQAMKLNVPRKTRLYVDQTLREREAGTAMHRAEQTDLYLLRLRAARAYLQALESSLSPLSTTAREPLKLHAVVQGLGPTFKLTLHLQNTSTTRPVLGLLVCFLYNEALYSLPRAFFKVPLLVPGLNYPLETFVESLSNKGISDIIKVLVLREGQSAPLLSAHVNMPGSEGLAAA [F452E]: the “effect of a mutation on the interaction” value was “with no effect”.

Take MAAASSSDSDACGAESNEANSKWLDAHYDPMANIHTFSACLALADLHGDGEYKLVVGDLGPGGQQPRLKVLKGPLVMTESPLPALPAAAATFLMEQHEPRTPALALASGPCVYVYKNLRPYFKFSLPQLPPNPLEQDLWNQAKEDRIDPLTLKEMLESIRETAEEPLSIQSLRFLQLELSEMEAFVNQHKSNSIKRQTVITTMTTLKKNLADEDAVSCLVLGTENKELLVLDPEAFTILAKMSLPSVPVFLEVSGQFDVEFRLAAACRNGNIYILRRDSKHPKYCIELSAQPVGLIRVHKVLVVGSTQDSLHGFTHKGKKLWTVQMPAAILTMNLLEQHSRGLQAVMAGLANGEVRIYRDKALLNVIHTPDAVTSLCFGRYGREDNTLIMTTRGGGLIIKILKRTAVFVEGGSEVGPPPAQAMKLNVPRKTRLYVDQTLREREAGTAMHRAFQTALYLLRLRAARAYLQALESSLSPLSTTAREPLKLHAVVQGLGPTFKLTLHLQNTSTTRPVLGLLVCFLYNEALYSLPRAFFKVPLLVPGLNYPLETFVESLSNKGISDIIKVLVLREGQSAPLLSAHVNMPGSEGLAAA [D455A]: the “effect of a mutation on the interaction” value was “with no effect”.

For the variant MAAASSSDSDACGAESNEANSKWLDAHYDPMANIHTFSACLALADLHGDGEYKLVVGDLGPGGQQPRLKVLKGPLVMTESPLPALPAAAATFLMEQHEPRTPALALASGPCVYVYKNLRPYFKFSLPQLPPNPLEQDLWNQAKEDRIDPLTLKEMLESIRETAEEPLSIQSLRFLQLELSEMEAFVNQHKSNSIKRQTVITTMTTLKKNLADEDAVSCLVLGTENKELLVLDPEAFTILAKMSLPSVPVFLEVSGQFDVEFRLAAACRNGNIYILRRDSKHPKYCIELSAQPVGLIRVHKVLVVGSTQDSLHGFTHKGKKLWTVQMPAAILTMNLLEQHSRGLQAVMAGLANGEVRIYRDKALLNVIHTPDAVTSLCFGRYGREDNTLIMTTRGGGLIIKILKRTAVFVEGGSEVGPPPAQAMKLNVPRKTRLYVDQTLREREAGTAMHRAFQTELYLLRLRAARAYLQALESSLSPLSTTAREPLKLHAVVQGLGPTFKLTLHLQNTSTTRPVLGLLVCFLYNEALYSLPRAFFKVPLLVPGLNYPLETFVESLSNKGISDIIKVLVLREGQSAPLLSAHVNMPGSEGLAAA [D455E], the “effect of a mutation on the interaction” value is reported as “with no effect”.
